# Source: article PMC10540216, “Activity Guided Azide-methyllysine Photo-trapping for Substrate Profiling of Lysine Demethylases” (Journal of the American Chemical Society, 2023)
# “Also recorded” adds a separate entry of the source.
# B1: KDM4A: full-length wild-type KDM4A overexpressed in HEK293T cells (protein, UniProt O75164 1-1064, looked up)
# chain: MASESETLNPSARIMTFYPTMEEFRNFSRYIAYIESQGAHRAGLAKVVPPKEWKPRASYDDIDDLVIPAPIQQLVTGQSGLFTQYNIQKKAMTVREFRKIANSDKYCTPRYSEFEELERKYWKNLTFNPPIYGADVNGTLYEKHVDEWNIGRLRTILDLVEKESGITIEGVNTPYLYFGMWKTSFAWHTEDMDLYSINYLHFGEPKSWYSVPPEHGKRLERLAKGFFPGSAQSCEAFLRHKMTLISPLMLKKYGIPFDKVTQEAGEFMITFPYGYHAGFNHGFNCAESTNFATRRWIEYGKQAVLCSCRKDMVKISMDVFVRKFQPERYKLWKAGKDNTVIDHTLPTPEAAEFLKESELPPRAGNEEECPEEDMEGVEDGEEGDLKTSLAKHRIGTKRHRVCLEIPQEVSQSELFPKEDLSSEQYEMTECPAALAPVRPTHSSVRQVEDGLTFPDYSDSTEVKFEELKNVKLEEEDEEEEQAAAALDLSVNPASVGGRLVFSGSKKKSSSSLGSGSSRDSISSDSETSEPLSCRAQGQTGVLTVHSYAKGDGRVTVGEPCTRKKGSAARSFSERELAEVADEYMFSLEENKKSKGRRQPLSKLPRHHPLVLQECVSDDETSEQLTPEEEAEETEAWAKPLSQLWQNRPPNFEAEKEFNETMAQQAPHCAVCMIFQTYHQVEFGGFNQNCGNASDLAPQKQRTKPLIPEMCFTSTGCSTDINLSTPYLEEDGTSILVSCKKCSVRVHASCYGVPPAKASEDWMCSRCSANALEEDCCLCSLRGGALQRANDDRWVHVSCAVAILEARFVNIAERSPVDVSKIPLPRFKLKCIFCKKRRKRTAGCCVQCSHGRCPTAFHVSCAQAAGVMMQPDDWPFVVFITCFRHKIPNLERAKGALQSITAGQKVISKHKNGRFYQCEVVRLTTETFYEVNFDDGSFSDNLYPEDIVSQDCLQFGPPAEGEVVQVRWTDGQVYGAKFVASHPIQMYQVEFEDGSQLVVKRDDVYTLDEELPKRVKSRLSVASDMRFNEIFTEKEVKQEKKRQRVINSRYREDYIEPALYRAIME
# modifications: full-length
# B2: G9a: full-length G9a methyltransferase expressed in HEK293T cells (protein, UniProt Q96KQ7 1-1210, looked up)
# chain: MAAAAGAAAAAAAEGEAPAEMGALLLEKETRGATERVHGSLGDTPRSEETLPKATPDSLEPAGPSSPASVTVTVGDEGADTPVGATPLIGDESENLEGDGDLRGGRILLGHATKSFPSSPSKGGSCPSRAKMSMTGAGKSPPSVQSLAMRLLSMPGAQGAAAAGSEPPPATTSPEGQPKVHRARKTMSKPGNGQPPVPEKRPPEIQHFRMSDDVHSLGKVTSDLAKRRKLNSGGGLSEELGSARRSGEVTLTKGDPGSLEEWETVVGDDFSLYYDSYSVDERVDSDSKSEVEALTEQLSEEEEEEEEEEEEEEEEEEEEEEEEDEESGNQSDRSGSSGRRKAKKKWRKDSPWVKPSRKRRKREPPRAKEPRGVNGVGSSGPSEYMEVPLGSLELPSEGTLSPNHAGVSNDTSSLETERGFEELPLCSCRMEAPKIDRISERAGHKCMATESVDGELSGCNAAILKRETMRPSSRVALMVLCETHRARMVKHHCCPGCGYFCTAGTFLECHPDFRVAHRFHKACVSQLNGMVFCPHCGEDASEAQEVTIPRGDGVTPPAGTAAPAPPPLSQDVPGRADTSQPSARMRGHGEPRRPPCDPLADTIDSSGPSLTLPNGGCLSAVGLPLGPGREALEKALVIQESERRKKLRFHPRQLYLSVKQGELQKVILMLLDNLDPNFQSDQQSKRTPLHAAAQKGSVEICHVLLQAGANINAVDKQQRTPLMEAVVNNHLEVARYMVQRGGCVYSKEEDGSTCLHHAAKIGNLEMVSLLLSTGQVDVNAQDSGGWTPIIWAAEHKHIEVIRMLLTRGADVTLTDNEENICLHWASFTGSAAIAEVLLNARCDLHAVNYHGDTPLHIAARESYHDCVLLFLSRGANPELRNKEGDTAWDLTPERSDVWFALQLNRKLRLGVGNRAIRTEKIICRDVARGYENVPIPCVNGVDGEPCPEDYKYISENCETSTMNIDRNITHLQHCTCVDDCSSSNCLCGQLSIRCWYDKDGRLLQEFNKIEPPLIFECNQACSCWRNCKNRVVQSGIKVRLQLYRTAKMGWGVRALQTIPQGTFICEYVGELISDAEADVREDDSYLFDLDNKDGEVYCIDARYYGNISRFINHLCDPNIIPVRVFMLHQDLRFPRIAFFSSRDIRTGEELGFDYGDRFWDIKSKYFTCQCGSEKCKHSAEAIALEQSRLARLDPHPELLPELGSLPPVNT
# modifications: full-length
# notes: full-length G9a methyltransferase expressed in HEK293T cells
# How the values were obtained:
# Assay type in all cases: cell-based, human
# [1] = tested on: eIF4A3 trimethylation in HEK293T cells; test: Immunoprecipitation of eIF4A3 from HEK293T cells and Kme3 immunoblot; details: eIF4A3 IP, pan-Kme3 immunoblot, vs control vector or control siRNA
# CBX1-eIF4A3 interaction [2] = test: Interactome pull-down of eIF4A3 using recombinant CBX1 from HEK293T nuclear extracts; details: 6xHis CBX1, Ni-NTA beads
# CBX1-eIF4A3 interaction [3] = test: Immunoprecipitation using CBX1 antibody from HEK293T cells, eIF4A3 immunoblot; details: vs control vector
# Experimental: concentration. The samples were then heated to 65°C for 15 minutes and loaded into a 4-12% polyacrylamide gel for Western blotting.
# 22. Immunoprecipitation using eIF4A3 and CBX1 antibodies […]
# Then 4 mg of nuclear extracts were added and left mixing overnight at 4°C. The following day, the beads were pelleted, and the supernatant was removed.
# The beads were washed twice with 50 mM Tris pH 7.5, 100 mM KCl, 0.1% Triton X. Laemmli dye (4X) was added to “elution buffer” from the Protein A Dynabead kit for a final 1X concentration. Each sample received 60 µL of the denaturing elution solution and was then incubated at 65°C for 15 minutes. The beads were pelleted on the magnetic rack and the supernatants were collected to perform Western blots. […]
# Each microcentrifuge tube received an CBX1 antibody mixture containing 10 µL antibody (ProteinTech cat. # 10241-2-AP). The antibodies […]
# were incubated with the beads using gentle agitation for 1 hour at 4°C. The beads were then washed 2x with conjugation buffer (200 µl of 20 mM sodium phosphate, 0.15M NaCl). BS3 crosslinking solution (250 µl of 5 mM BS3 in conjugation buffer) was added to each aliquot and incubated at room temperature for 20 minutes. The supernatant was removed and a second round of BS3 solution was administered for 5 minutes at room temperature. […]
molecule,measurement,setting,value
B1,eIF4A3 Kme3 level,[1],significantly reduced the Kme3 level; also recorded: robustly deceases eIF4A3 methylation; also recorded: robust eIF4A3 demethylation
same,eIF4A3 enrichment by recombinant CBX1 pull-down,CBX1-eIF4A3 interaction [2],decreased the association
same,eIF4A3 enrichment by endogenous CBX1 (IP),CBX1-eIF4A3 interaction [3],decreased in KDM4A-transfected cells; also recorded: reduced it compared to control vector-transfected cells
B2,eIF4A3 Kme3 level,[1],increased Kme3 compared to the control vector; also recorded: considerable increase in Kme3 on eIF4A3
same,eIF4A3 enrichment by recombinant CBX1 pull-down,CBX1-eIF4A3 interaction [2],maximum enrichment of eIF4A3
same,eIF4A3 enrichment by endogenous CBX1 (IP),CBX1-eIF4A3 interaction [3],increased in G9a-transfected cells; also recorded: robust enrichment of eIF4A3 by CBX1
